Source: patent publication US20010016194A1 (priority 1999, published 2001)

What was measured:
Raf-1 = assay: COS cells transfected with IL-2Rβ chain constructs, immunoprecipitated with Mik-β1, blotted with anti-Raf-1; format: cell-based; settings: transfected COS cell lysates, FIG. 8a
Procedure: (§1) COS cells were transfected via the DOTAP method (Boehringer-Mannheim, Indianapolis, Ind.) following the manufacturer's instructions. The transfection cocktail contained 5 μg of DNA total and […] of DOTAP in a final volume of […] HBS (25mM HEPES, pH 7.4 and lOOmM NaCl). The COS cells were grown in DMEM medium supplemented with 10% heat-inactivated fetal calf serum, penicillin/streptomycin, 25mM HEPES, pH 7.4, and L-glutamine. The COS cells were exposed to the transfection cocktail for 12 hours, washed and subsequently cultured in fresh medium. 24 hours after washing approximately 3×10^5 cells were harvested and washed twice in chilled PBS. A lysis buffer was prepared and consisted of […] NaCl, 50mM Tris pH=7.4, 0.5% CHAPS (Pierce), […] (Sigma), supplemented with the following protease inhibitors immediately before use: aprotinin (Sigma) 2.5mg/ml, leupeptin (Boehringer-Mannheim) 2.5 mg/ml; Pepstatin A (Boehringer-Mannheim) […], PMSF (Sigma) […], NaF (Sigma) 100mm and sodium orthovanadate (Sigma) lmM. The transfected COS cells were lysed in 0.5 ml of lysis buffer on ice for 10 minutes, and subsequently centrifuged at 12,000 xg for 5 minutes, remaining supernatants were collected, and supplemented with pre-immune serum and protein G-agarose beads (BRL-Gibco, Gaithersburg, MD), which had been previously washed in lysis buffer. […]

14-3-3 proteins = assay: COS cells transfected with IL-2Rβ chain constructs, immunoprecipitated with Mik-β1, blotted with anti-14-3-3; format: cell-based; settings: transfected COS cell lysates, FIG. 8a
Procedure: as §1

[1] = molecular target: T1, Raf-1 proteins present in T-cell lysates (Homo sapiens, UniProt P04049); assay: Cell-free system: binding of Raf-1 from T-cell lysates to FLAG-HMK-IL-2Rβ chain fusion proteins on anti-FLAG beads, anti-Raf-1 immunoblot; settings: lysates from PHA activated peripheral blood mononuclear cells, FIG. 8b
T1 construct: endogenous in cells; host or cells: PHA-stimulated human peripheral blood mononuclear cells (T cells), lysate
Source text: (ii) In order to study the interaction of IL-2Rβ chain with intracellular molecules, the FLAG-HMK-IL-2Rβ chain cytoplasmic domain fusion protein was purified from bacterial lysate using the M2 anti-FLAG monoclonal antibody in a standard affinity chromatography procedure. More specifically, bacterial lysate proteins were absorbed onto anti-FLAG (M2) affinity column (IBI-Kodak, New Haven, Conn., USA). After washing the column, the adsorbed proteins were eluted with either glycine buffer (pH 3) or FLAG peptide (10^−4M). Proteins in various fractions were analyzed for expected size (about 33 kDa) and purity after separation on SDS-PAGE and Commassie blue staining. The presence of a functional HMK recognition site was confirmed by phosphorylation of the purified 33 kDa IL-2Rβ chain fusion protein by HMK. More specifically, the eluted fusion proteins were tested for susceptibility to phosphorylation by incubation with the catalytic subunit of bovine heart muscle kinase (Sigma) (1 U/ul) in buffer containing 20 mM Tric-HCl, pH 7.5, 1 mM DTT, 100 mM NaCl, 10 mM MgCl2 and 1μCi [γ^32p] ATP for 30 min at 37° C. followed by SDS-PAGE and autoradiography. Purified FLAG-HMK-IL-2Rβ chain fusion proteins were used as an affinity reagent to probe for cytosolic proteins present in lysates of human T cells, metabolically labeled with [^35S ]-methionine, that bind to the IL-2Rβ chain. […] For [^35S]-methionine labeling, the cells were suspended at 4×10^7 cells/ml at 37° C. followed by addition of 0.5 mCi of [^35S]-methionine for 4 hours prior to lysis in Dounce homogenization buffer and application of the lysate to the affinity column. Several [^35S]-labeled proteins were retained by the FLAG-HMK-IL-2Rβ chain cytosolic domain fusion protein bound to the affinity column. One of these proteins was identified as Raf-1 by immunoblotting using a polyclonal antibody specific for the SP-63 peptide which corresponds to the C-terminal fragment of Raf-1. A molar excess of the competing SP-63 peptide blocked binding of the anti-SP-63 antibody to Raf-1.
Using the basic cell-free system described above, a number of FLAG-HMK-IL-2Rβ chain wild type FLAG-HMK-IL2Rβ chain deletion mutant proteins were then studied with respect to this specific interaction with Raf-i proteins present in T-cell lysates. These FLAG-HMK-IL2Rβ chain wild type (WT) and deletion mutants lacking certain defined domains of the IL-2Rβ chain were used to identify the IL-2Rβ chain domain involved in Raf-1 binding. Assay conditions were similar to those described above. […] In FIG. 1, there is shown, schematically, all of the constructs, i.e., FLAG-HMK-IL-2Rβ chain fusion proteins produced in transformed bacterial cells and used in this study. These FLAG-HMK- fusion proteins-coated beads were then used as affinity reagents to absorb Raf-1 proteins present in T-cell lysates. T-cell derived proteins bound to FLAG-HMK fusion proteins were then eluted using buffer containing FLAG peptide, separated on SDS-PAGE, transferred onto Immobilon membrane and blotted with anti-Raf-1 antibody.
The absorbed proteins were washed, eluted with FLAG peptide and probed for the presence of Raf-1 and 14-3-3 proteins on immunoblots. […] Washed cells (about 4×10^7) were lysed in Dounce homogenization buffer, centrifuged (15×10^3 xg for 15 min.) and supernatants applied onto washed anti-FLAG (M2) affinity column (IBI-Kodak) coated with bacterial lysates interacted with one of the FLAG-HMK fusion proteins. […]

B1: IL-2Rβ-WT: human IL-2Rβ chain wild type expressed in COS cells from pRcCMV (protein)
chain: AVNGTSQFTCFYNSRANISCVWSQDGALQDTSCQVHAWPDRRRWNQTCELLPVSQASWACNLILGAPDSQKLTTVDIVTLRVLCREGVRWRVMAIQDFKPFENLRLMAPISLQVVHVETHRCNISWEISQASHYFERHLEFEARTLSPGHTWEEAPLLTLKQKQEWICLETLTPDTQYEFQVRVKPLQGEFTTWSPWSQPLAFRTKPAALGKDTIPWLGHLLVGLSGAFGFIILVYLLINCRNTGPWLKKVLKCNTPDPSKFFSQLSSEHGGDVQKWLSSPFPSSSFSPGGLAPEISPLEVLERDKVTQLLLQQDKVPEPASLSSNHSLTSCFTNQGYFFFHLPDALEIEACQVYFTYDPYSEEDPDEGVAGAPTGSSPQPLQPLSGEDDAYCTFPSRDDLLLFSPSLLGGPSPPSTAPGGSGAGEERMPPSLQERVPRDWDPQPLGPPTPGVPDLVDFQPPPELVLREAGEEVPDAGPREGVSFPWSRPPGQGEFRALNARLPLNTDAYLSLQELQGQDPTHLV
binding of Raf-1 (Raf-1): bound | binding of 14-3-3 proteins (14-3-3 proteins): bound | binding to Raf-1 [1]: bound to Raf-1
